Reference: article doi:10.1101/2023.09.20.558662 (bioRxiv, 2023)
Blank lines part the entries; values can stand above or below the binder they belong to.

Experiments:
cryo-EM structure = target: the molecule itself; test: cryo-EM structure
[1] = target: CUL3 N-terminal domain (CUL3^NTD, residues 1-381) (UniProt Q13618 1-381); test: BLI
Chain of CUL3 N-terminal domain (CUL3^NTD, residues 1-381) (Q13618 1-381): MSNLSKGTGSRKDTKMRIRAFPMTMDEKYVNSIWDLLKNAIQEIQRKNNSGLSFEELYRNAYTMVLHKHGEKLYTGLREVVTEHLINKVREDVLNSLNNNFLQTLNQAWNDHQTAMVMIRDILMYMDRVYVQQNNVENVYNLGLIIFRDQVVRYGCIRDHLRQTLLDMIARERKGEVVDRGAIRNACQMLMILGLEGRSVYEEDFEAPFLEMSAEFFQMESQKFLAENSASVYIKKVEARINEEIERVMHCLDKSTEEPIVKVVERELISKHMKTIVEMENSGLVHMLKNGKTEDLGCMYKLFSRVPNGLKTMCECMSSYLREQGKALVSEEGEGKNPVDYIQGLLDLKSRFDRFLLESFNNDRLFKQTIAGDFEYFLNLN

B1: KCTD5 (full-length, purified; SEC and cryo-EM samples) (natural protein)
chain: MAENHCELLSPARGGIGAGLGGGLCRRCSAGLGALAQRPGSVSKWVRLNVGGTYFLTTRQTLCRDPKSFLYRLCQADPDLDSDKDETGAYLIDRDPTYFGPVLNYLRHGKLVINKDLAEEGVLEEAEFYNITSLIKLVKDKIRERDSKTSQVPVKHVYRVLQCQEEELTQMVSTMSDGWKFEQLVSIGSSYNYGNEDQAEFLCVVSKELHNTPYGTASEPSEKAKILQERGSRM
stoichiometry N (cryo-EM structure): 5

Kd [1]: 0.03 µM
B2: Thioredoxin-fusion KCTD5 (natural protein)
chain: MAENHCELLSPARGGIGAGLGGGLCRRCSAGLGALAQRPGSVSKWVRLNVGGTYFLTTRQTLCRDPKSFLYRLCQADPDLDSDKDETGAYLIDRDPTYFGPVLNYLRHGKLVINKDLAEEGVLEEAEFYNITSLIKLVKDKIRERDSKTSQVPVKHVYRVLQCQEEELTQMVSTMSDGWKFEQLVSIGSSYNYGNEDQAEFLCVVSKELHNTPYGTASEPSEKAKILQERGSRM

binding result [1]: binds
B3: KCTD5 L161R (natural protein)
chain: MAENHCELLSPARGGIGAGLGGGLCRRCSAGLGALAQRPGSVSKWVRLNVGGTYFLTTRQTLCRDPKSFLYRLCQADPDLDSDKDETGAYLIDRDPTYFGPVLNYLRHGKLVINKDLAEEGVLEEAEFYNITSLIKLVKDKIRERDSKTSQVPVKHVYRVRQCQEEELTQMVSTMSDGWKFEQLVSIGSSYNYGNEDQAEFLCVVSKELHNTPYGTASEPSEKAKILQERGSRM
